Experimental data published in article doi:10.1101/2023.11.28.564875 (bioRxiv, 2023).

How the values were obtained:
[1] = biological target: T1, GST-fused Cα-subunit of mouse PKA (GST-PKAC) (mouse, UniProt P05132 1-351); assay: pull-down
[2] = biological target: T1, GST-fused Cα-subunit of mouse PKA …; assay: pull-down; remark: listed apart in the source

- Kd [1]: < 1000 nM
- IC50 [2]: 880 nM
B1: His8-DCRD-Myc (domain or fragment)
chain: RQFHGSASSLVEAVLISEGLGQFAQDPKFIEVTTQELADACDLTIEEMENAADDILSGGARQS
